Assay results as given in patent US20140057847A1.

Molecular target: rat growth hormone releasing hormone receptor (rat) (UniProt Q02644)
Assay: radioligand competition binding of radioiodinated JV-1-42 to membrane fractions of ischemic rat heart

UniProt Q02644, sequence (Q02644 23-464): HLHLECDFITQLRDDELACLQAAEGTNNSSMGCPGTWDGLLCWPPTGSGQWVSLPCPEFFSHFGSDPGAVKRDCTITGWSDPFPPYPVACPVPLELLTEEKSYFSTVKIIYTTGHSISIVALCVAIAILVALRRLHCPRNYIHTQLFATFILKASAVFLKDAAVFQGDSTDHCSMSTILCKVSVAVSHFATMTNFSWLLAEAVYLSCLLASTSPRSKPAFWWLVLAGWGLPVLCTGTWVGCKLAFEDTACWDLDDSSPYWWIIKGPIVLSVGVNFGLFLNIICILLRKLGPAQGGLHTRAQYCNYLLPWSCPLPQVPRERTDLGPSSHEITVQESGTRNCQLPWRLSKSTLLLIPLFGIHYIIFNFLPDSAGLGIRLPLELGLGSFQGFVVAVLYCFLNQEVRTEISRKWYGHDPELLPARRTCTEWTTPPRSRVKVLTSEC

Bmax (fmol/mg protein): 51.3 | Kd: 0.86 nM
Substance: GHRH antagonist JV-1-42 (radioiodinated) (peptide)
